Assay results reported in US7094597.

Target: purified HLA MHC Class II molecules (human)
Experiment: ELISA, biotinylated peptides on immobilized purified HLA class II molecules (FIG. 5)

## dnaJp1 peptide (…)
  fold stronger binding than S1 and S6 peptides: > 100 fold
